{"source": "patent US20200095569A1", "key": {"[1]": {"target": "NLS-iLID-GFP-ferritin (Gallus gallus; human) (UniProt P02794)", "experiment": "cell-based or functional assay"}, "[2]": {"target": "NLS-iLID-iLID-GFP-ferritin (Gallus gallus; human) (UniProt P02794)", "experiment": "cell-based or functional assay"}}, "data": [{"substance": "FUS(1-214)-mCherry-sspB (from UniProt P0AFZ3 6-116)", "values": [{"measurement": "mean mCherry intensity in locally activated droplets relative to nucleoplasm", "setting": "[1]", "value": 100, "unit": "fold"}, {"measurement": "mCherry fluorescence at core based droplets after light activation (live cell confocal imaging)", "setting": "[2]", "value": 15, "unit": "s"}]}]}
